Experimental findings from publication PMC3294029 (2013) are described below.

Test in all cases: fluorescence anisotropy
In general terms: Polarisation of emitted light reports the rotation of a fluorescent probe.

Assay [1] concerns the target T1, N-CoR RID2 peptide (Homo sapiens).
T1 chain: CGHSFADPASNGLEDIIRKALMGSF

In assay [2] the target is T2, ACTR NR box 3 peptide (Homo sapiens, 521 nM ATRA, Rhodamine Red-labelled peptide).
T2 chain: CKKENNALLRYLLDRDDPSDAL

Assay [3] deals with T3, ACTR NR box 3 peptide (Homo sapiens, Rhodamine Red-labelled peptide).
T3 chain: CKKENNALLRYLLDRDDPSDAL

Assay [4] concerns the target T4, N-CoR RID2 peptide (Homo sapiens, Rhodamine Red-labelled peptide).
T4 chain: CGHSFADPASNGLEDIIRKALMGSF

The target in assay [5] is T5, N-CoR RID2 peptide (Homo sapiens, 209 nM ATRA, Rhodamine Red-labelled peptide).
T5 chain: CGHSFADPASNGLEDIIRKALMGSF

B1: RARα LBD (protein)
chain: ESYTLTPEVGELIEKVRKAHQETFPALCQLGKYTTNNSSEQRVSLDIDLWDKFSELSTKCIIKTVEFAKQLPGFTTLTIADQITLLKAACLDILILRICTRYTPEQDTMTFSDGLTLNRTQMHNAGFGPLTDLVFAFANQLLPLEMDDAETGLLSAICLICGDRQDLEQPDRVDMLQEPLLEALKVYVRKRRPSRPHMFPKMLMKITDLRSISAKGAERVITPKMEIPGSMPPLIQEMLENSEGLD
What is called Kd is the free concentration of one partner at which half of the binding sites on the other are occupied at equilibrium, for simple one-to-one binding. A higher Kd goes with lower affinity. As to B1, the Kd in assay [1] amounted to 12.2 µM.

B2: RARα LBD (protein)
chain: ESYTLTPEVGELIEKVRKAHQETFPALCQLGKYTTNNSSEQRVSLDIDLWDKFSELSTKCIIKTVEFAKQLPGFTTLTIADQITLLKAACLDILILRICTRYTPEQDTMTFSDGLTLNRTQLHNAGFGPLTDLVFAFANQLLPLEMDDAETGLLSAICLICGDRQDLEQPDRVDMLQEPLLEALKVYVRKRRPSRPHMFPKMLMKITDLRSISAKGAERVITLKMEIPGSMPPLIQEMLENSEGLD
In the case of B2, in assay [1], the Kd came to 18.6 µM.

B3: RARα LBD (protein)
chain: ESYTLTPEVGELIEKVRKAHQETFPALCQLGKYTTNNSSEQRVSLDIDLWDKFSELSTKCIIKTVEFAKQLPGFTTLTIADQITLLKAACLDILILRICTRYTPEQDTMTFSDGLTLNRTQMHNAGFGPLTDLVFAFANQLLPLEMDDAETGLLSAICLICGDRQDLEQPDRVDMLQEPLLEALKVYVRKRRPSRPHMFPKMLMKITDLRSISAKGAERVITLKMEIPGSMPPLIQETLENSEGLD
For B3, in assay [1], the Kd turned out to be 10.9 µM.

B4: RARα LBD (protein)
chain: ESYTLTPEVGELIEKVRKAHQETFPALCQLGKYTTNNSSEQRVSLDIDLWDKFSELSTKCIIKTVEFAKQLPGFTTLTIADQITLLKAACLDILILRICTRYTPEQDTMTFSDGLTLNRTQMHNAGFGPLTDLVFAFANQLLPLEMDDAETGLLSAICLICGDRQDLEQPDRVDMLQEPLLEALKVYVRKRRPSRPHMFPKMLMKITDLRSISAKGAERVITLKMEIPGSMPPLIQEMLENSEGLD
Take B4: the Kd in assay [2] is 55 µM; in assay [3] it was 155 µM; in assay [4] it was 18.9 µM; in assay [5], 74.2 µM.
